Results on one substance are retold here after publication PMC8390535.

The experiment concerns the target sfGFP-POX10 (superfolder green fluorescent protein POX10 fusion protein). The experiment can be described thus: SPR.

A word on the Kd: it is the concentration at which binding is half-saturated. “PXDN-con4 (human recombinant peroxidasin consisting of the four immunoglobulin domains and the peroxidase domain) (domain or fragment)” showed an equilibrium dissociation constant (Kd) of 74 nM.
